Assay results taken from PMC11098746 (2024).

B1: 39 (protein)
chain: GTIEIKLSEFVGDSVNLAAKLHGFFLELNVNIAFTVICSNGMKALNGICIPCPLGSYNNINEYIKNNNIYECTLCHNNAATKNEGSTSISQCLCLPGYELNNNDLCVPCKRGTWKTKLSNSPCIFHCYPNSYSLVQGSRSEEESKCKCKRGFYFVSKDSINFCDNCNIGYFCPGGYKIGEKKCPKNTANIAQNNFAISSCKCDVGFEPFDSSNLNAYNFKNDPIFNDYKDFLDDVKSSQICVPCKEGFYKNTVSEEKCKRCSDNVYTDGLQSTSISNCKKCEKGYYLQSEDSCIICPDNHYCPGAYINDPKYAIYENQKIPCGDKSLTIPPNNLNVAHLNCLCKKGFEFIKTDDNEFDCLEVPKNYYKSHLGNKEKEPCPENSVTLYTQTKSKVKCLCMPGYYWDLKEFKCIKCPKGHYCPGGYLKNCFNNQNLHSCKPQKKKCPLKNSATQTKESFSQSSCLCDKGYTINKEELRECIPCPINTYKDVISNAECTKCLTPYTTDGQIGSTKEEDCTCSGGFFFLNHCLPCSDKNTYCKGGKMIVNNKNKAIHYGPSKCPPNTAVSFETERPYNKGFCVCQKGFKHVYTTSDFTKICAPCERGFFKTIIGDFSCESKCKPNSASFVGTIHETHCFCLENYYFKNGICLNCPDGAYCEGGFQKETLLYMKKNEYYLDTSKIKHIMPVPKENYALYKLKTNIYNTDWFIVECPIKEACLYNEKCHESMTNFLCGECKKGYTNNFAKLNLCIKCSGHIMN
modifications: bait human Fc-tagged dimer
B2: 53 (protein)
chain: EKLISKLTKNGDLDLVLLYDIGFVDDSENDHMNSLENIAELGKNLLVRDNKNINLAYITYDDINVDLRIESRNNIGVDNENNYDKDNNAAYKFGSDKNIEEFRNVVLDTKLKSSYKNSAHLKALNYVGLKHFYNSEKESVKMVVMFMNTDGDYNNNNNNNMNNIASSYSAELNLVHYLFDRKNIILNIITRVAFKNYCHYIQQIGSNTNELLKCVLKNSFYNIAALTYEIIKYYDDISINAICHGWSEWSPCSVTCNMGYHFSKRDSLGYIKNSKSGLYKRKGRSCLEQRNLIIQECFNTACDHSLDICDNIYMDISILLDDSSNIALESWNKYIIPFVRKFITHFNINNNQINFALTTYSSHTYNWFNFANVLSKDKDKLLTYLEFFKFNFGSSTKNIKQAIQYMNDHVLNTNYRRNDAKKIMLIINSGEIDNKAVTSVPDIIQRLKDTHNVQVYSICINNQNVKNCRKLSTHSMEKYGSNFAFSLPNAADLRYNVLGIQKSICRNVAGAFRRKLRSGNKDDEDKKDDEYKEEDEYKEEDEYKEEDEYKEEDEYKEEDEYKEEDEYKEEDEDMKKDEDMKKDEDMKKDEYKKGYKDYKKDQSKNDNKAEERKDEGNIATSNEHHASEKTDDEDIITQYNEEDRHDNSNDNIIIDDEPVGQDNSIFKNENFFWGRGKHDSKYTSKLSINSLGDINEYNDDYNNYDYYDDDPTNRNKGFLKKNSIILKSLYNLNEDYVNNNINNDAGSTSSHCRNNNAGHNDIPHFKNMRKYNSETNIPCSSKSNKATNKKLLNRLYNMLFRKKKKYRIKNMDAHSKKKVEKFIENIKFSKENNDDNRKIDEQNIEIQFDTLLDGIFDFLQDYDNSALNAFNNAAPDDDFVYFSNTAPCGVSLMDFPIYDMENMEADVGGKRNDGDNNDDDDNNDDGDNNDDGDNNDDDDNDDKSNNNNNNNNNGDPSSNNNNNNNNNNGDPSSNNNNNNNGDPSSNNNDDGDADEKRNDYISQYNLVLKDKSHNNNYYMTNEHDERKIKKQENIDILSKEEDNIASNYNNELQRTKRSLDFPEIIIKENYENPKDIIHISKKEEANEANNAKGHINLKNKKEHNNVVDNVNPCNKQNINEEDNNINNAIKTARIGIFNKNKINCRNKKASKFDKIKRFNDKINKDNHPLITNVENKNEEIDVLQNNEDKKQKILPIIKNENAKETGQKYENNDVYEEHNKANINNNVEKLYKDKNSHHIKNQYDKGNLAENNEVTPIYSKDYDADDEEYEHWHGHQRDNKATP
modifications: bait human Fc-tagged dimer
B3: 82 (protein)
chain: GLCKPCTLENHYCEGGLESDITFNNKLIKGKFHTLPKKCPRGLGIPNIIKERNSINNCLCIHGKVQRTTENKNVECFPCPPNTFKENEYDNSCSGACPPFSTTFVGSSYENQCFCKNNYYLVSTDDENDANGNSINNNKNIYNNNNIYNNNNNNNNNNNNNFNNKADVKKKSCKICPIGAICNRGFNIYIYLKLLNDRSYNNINVIDHETPFPKYGYYAVYREKTNPAKSWDTLDDSAILNYVYPYHKLLLFIQKNIQKGNYFFLEKGNKFFLNDDFVEKMNEKSKYEEENANKFVTKSEIIHNVNTNNLKGKHNTLNNNNNNNNINKASSFLNQNNYNNDIIQLSSYENNPFKNLASTSEVSSNNNVISFIQNNDKTNNAANDNNIENLVDIFNKYVQEAKELQIQNRKFERIPDIHPCTIPNRCLGTLINLCSDGSTGYQCNNCAKNYDMSYFKSKCKKCQNLFYE
modifications: bait human Fc-tagged dimer
B4: 10 (protein)
chain: FRKYDKNKNKILISHSINNNNNAIKNNNNNNNAIKNNNNNNNAIKNNNNNNNAFSATSFSSEKNKNKAYTNVLKKKNIYIREESNKATNIKEDEEKNKKINNNDKETNYAFLSLKFFPFILTSLLHTGINQIPRNTEIELYEFEKSPMIRHMLVAEERKN
modifications: bait human Fc-tagged dimer
B5: 36 (protein)
chain: QDEKSVKNICVCDFTDKLNFLPLEKTKILCELKPQYGEDIKIIANKEYEINCMNNAKVFCPLKDTFINNANIKLYSPKLHFEIKDITHKGKNAALYYLKIDEEASDIFFSCSIKPKQVSGLLEGEVRVNLKKHINEEYSIFNEEEDVHVCDFSKGNLDITPSAGFYLKNSRNVACIYRVIPNKLFLIKLPKLDIVTEKLLPSIVNCLSEFSFINFALKHVQEGDNYISFNVIFGEFKKHFNLACSLDLSDFQQEPCNLGKTANIAFIFSK
modifications: bait human Fc-tagged dimer
B6: 54 (protein)
chain: DQLDMGSVHNNNAVVGNSASHSPSSSSSSPSSSSSSSSSSPSASSSSSSSSPASSSSSPSSTSDDSKNAALDKIDEELQKKKKNEKL
modifications: bait human Fc-tagged dimer
B7: 20 (protein)
chain: DIIIVDSNKDIQGFDPNSVLNLAENVFNIFLDTKTNNADIKTVYSSIFSNSKVTIDGTCSSMKELIKGRSLKYLDELGTEEYVNSDDVFNFAIFVYTVNGQPDIIQQVYKKHPNYISYIITCKESELFDNIEDAKDNKNVFHTNP
modifications: bait human Fc-tagged dimer
B8: 70 (protein)
chain: NTYIYLKQDSFVFSNEFPTVEEKNQALGENYEIVTLTTKDNHKFTCWYIKTKDSENKPIMLYFQGNGGYLEKYMNLFNLIIERVDVNIFSCSNRGCGSNIAKPSEEYFYKDAHVYIEYVKTKNPKHLFIFGSSMGAAVAIDTALKQHDHISGLIVQNAFTSLKELSRYSHPFLNYFLFDYDMIIRSKMDNEAKIKNIAVPTLFTLSEMDEKVPTSHTRTLFQLSASTNKQLYLSKGGTHPNILKNDDGSYHKAMKKFIVTAISIREKNIQKAVERNPNTPN
modifications: bait human Fc-tagged dimer
B9: 88 (protein)
chain: FENAIKKTKNQENNLALLPIKSTEEEKDDIKNGKDIKKEIDNDKENIKTNNAKDHSTYIKSYLNTNVNDGLKYLFIPSHNSFIKKYSVFNQINDGMLLNEKNDVKNNEDYKNVDYKNVNFLQYHFKELSNYNIANSIDILQEKEGHLDFVIIPHYTFLDYYKHLSYNSIYHKSSTYGKCIAVDAFIKKINEAYDKVKSKCNDIKNDLIATIKKLEHPYDINNKNDDSYRYDISEEIDDKSEETDDETEEVEDSIQDTDSNHAPSNKKKNDLMNRAFKKMMDEYNTKKKKLIKCIKNHENDFNKICMDMKNYGTNLFEQLSCYNNNFCNTNGIRYHYDEYIHKLILSVKSKNLNKDLSDMTNILQQSELLLTNLNKKMGSYIYIDTIKFIHKEMKHIFNRIEYHTKIINDKTKIIQDKIKLNIWRTFQKDELLKRILDMSNEYSLFITSDHLRQMLYNTFYSKEKHLNNIFHHLIYVLQMKFNDVPIKMEYFQTYKKNKPLTQ
modifications: bait human Fc-tagged dimer
B10: 63 (protein)
chain: FRGNNGHNSASSLYNGAQFIEQLNNAFTSAFLESQSMNKIGDDLAETISNELVSVLQKNSPTFLESSFDIKSEVKKHAKSMLKELIKVGLPSFENLVAENVKPPKVDPATYGIIVPVLTSLFNKVETAVGAKVSDEIWNYNSPDVSESEESLSDDFFD
modifications: bait human Fc-tagged dimer
B11: 11 (protein)
chain: LKVPIENAPFVFNKKENDIKYFLDKETPDDFLSNNAYSLDITLENFPNPFFHPSLCNRYGFKFSYICDPNKILSRNIADQIEEILNYQRRNSKHFCVDKEVPYVLGVALINKLPYGISADTFASQIFEYWKLSNKDCNDGVLLFFVKEDTHFILKWKKGAQSIINFRTATSMNKAFNQYLRKYSLEYSILSAVKLTSQYLTEEIIPPTQTAQK
modifications: bait human Fc-tagged dimer
B12: 69 (protein)
chain: IYYCNDNILENANNDDSTKDINNINKNSANKAKSEKTSNYNNDQYNIDDAYNEDEENDEEEGDDDENDHFEVPINCAGGNCFDSMDDINKIIDNKKKKMKYRRRRGKAIQIIKPNVNHAELIIIEENLEIFKRIDKPIAIVSVLGDMHTGKSFLLNLLNEHVIPDINKANKYIENGFKVGNDITASTYGIWIWSEPIRINVKKLKKIYEYINENFANFIKSYEYEKDEYNEEIIDLLNLYKTDDWISNVEELNLADTDEVNLILMDTQGLNSPNVNKRYDEILYALTNLISTDIIFLTMKMINNKDLEFIENIAKDANLFMLRAYTRSSGSTFSIKKNNFHKILDTLNNNLENNALILESIASKNLMWVVHDFSQRLDVRKGKLWLDILLNSDRRDLDIKYWKKIISNKAKDKHDAYTTKKQKIAYLTYNENSASGLLPNNNNNNNNANDASSNYKLNILYKNIDCVLLRNMYHNKEFDFTKANINDLNEEYKNDVLLLRYKIYLRALLFPKKMYSDVQINNIINKIRKEQKLREEQEKNKDNKKNDANNQANDLNSNKDETSGSQVTNRFMSGHDVYDFITFLVKSANQNLFTNVNQFFKHFKINRAEISRNDLIFLYKKYLLQFMENEDVEFISNLNDENDDLFLQKEGNNAAVNHDENSDADSLFNDHDENMQLKEHNIKDGEDNTHQKKDSYKLPPLLNEIKKYEELIREQILNIWYKYTESDFHDEEEKELIKDIENNLYERLDQIKIEMLELGEMNIRKFCKIACEDALQIVVEDIKMKSDQYPIKQKDLTTFFESVSYNLIKYLEKKLSKNSDKLDLIYYKDNICSPLINNAFQEFYFLKKKNIALNENRLKSYFSNAVEKGKEVFEVLAENTENIAEYFKNKNMFYTVLDKWTSEAINTYTLTLSDFAKEEKEINDEYLNVLNNDIKLLKQKAMEKWHNHCRDKTSALYNMHKSNLKKNFLENFNFPLDELVLQDIFLNLKGQEELKYMDIYCANEDSWNSEYKNFLKLTDEIFQFIKDENLKAIQITCQQPLDELKNGIKGEIHKYYLWSSLKSTLYNRALIVLSSNIENIYIKNQRENKIQSNLDEKYNNKNKNYKRISKDLMSKVINRWLNNDIYNVYYP
modifications: bait human Fc-tagged dimer

What follows are binders tested against FGFR4 ectodomain (Homo sapiens, UniProt P22455) (assay: AVEXIS normalised luminescence).
In the case of B1, the binding score is reported as 0.948. B2 showed a binding score of 1.23. B3 was tested, and the binding score was 1.25. Work on B4 yielded a binding score of 1.56. For B5, the binding score was 0.937. With B6 the binding score was 0.958. Work on B7 yielded a binding score of 1.16. In the case of B8, the binding score is reported as 0.951. For B9, the binding score was 1.03. B10 showed a binding score of 1.23. B11 showed a binding score of 1.58. B12 was tested, and the binding score was 0.719.
